Patent US20180073013A1 (published 2018)

What was measured:
Assay in all cases: cytokine release
[1] = biological target: T1, HPV16 oncoprotein E5 peptide on HLA-B*15:01 (human)
T1 peptide: ITAASAFRCFIVY

[2] = biological target: T2, HPV16 oncoprotein E5 peptide on HLA-B*15:01 (human)
T2 peptide: LLLWITAASAF

[3] = biological target: T3, HPV16 oncoprotein E5 peptide on HLA-B*15:01 (human)
T3 peptide: WITAASAF

[4] = biological target: T4, HPV16 oncoprotein E5 peptide on HLA-B*15:01 (human)
T4 peptide: AASAFRCFIVY

[5] = biological target: T5, HPV16 oncoprotein E5 peptide on HLA-B*15:01 (human)
T5 peptide: LLWITAASAF

[6] = biological target: T6, HPV16 oncoprotein E5 peptide on HLA-B*15:01 (human)
T6 peptide: ASAFRCFIVY

[7] = biological target: T7, HPV16 oncoprotein E5 peptide on HLA-B*15:01 (human)
T7 peptide: TAASAFRCFIVY

[8] = biological target: T8, HPV16 oncoprotein E5 peptide on HLA-B*15:01 (human)
T8 peptide: WITAASAFRCFIVY

B1: HPV16 E5-specific TCR (TRAV17 + TRBV6-5) (TCR, V domains shown)
Valpha: SQQGEEDPQALSIQEGENATMNCSYKTSINNLQWYRQNSGRGLVHLILIRSNEREKHSGRLRVTLDTSKKSSSLLITASRAADTASYFCAESEYGNKLVFGAGTILRVKS
Vbeta: NAGVTQTPKFQVLKTGQSMTLQCAQDMNHEYMSWYRQDPGMGLRLIHYSVGAGITDQGEVPNGYNVSRSTTEDFPLRLLSAAPSQTSVYFCASSYRQQETQYFGPGTRLLVL
binding result [1]: recognises
binding result [2]: no recognition
binding result [3]: no recognition
binding result [4]: recognises
binding result [5]: no recognition
binding result [6]: recognises
binding result [7]: recognises
binding result [8]: recognises
